Entries after “also recorded” stand apart in the source; their conditions may differ.
How the values were obtained:
SOCS3 = SOCS3 (Mus musculus, UniProt O35718); details: result in words; cited from earlier work
[1] = depending on the cell type; cited from earlier work
[2] = Protocol: (§1) Pelleted bacterial cells were resuspended in PBS and then lysed by homogenisation. The lysate was centrifuged at 20,000 g and the pelleted inclusion bodies solubilised using 6M GdnHCl. The protein was then purified using Ni-NTA resin (Qiagen) by binding at pH 8.0, washing at pH 6.3 and eluting at pH 4.5, all in 6M GdnHCl. The eluted protein was diluted to 0.1 mg/mL and a final GdnHCl concentration of 4 M and then refolded by extensive dialysis against 25 mM sodium phosphate, 50 mM sodium chloride, 5 mM 2-mercaptoethanol at pH 6.7.
All constructs contained the SH2 domain, as defined by sequence homology (Okazaki et al., 2002), but included differing lengths of sequence outside this region.
The six mutants (A50D, G53R, L58E, A62E, A65E, G99D) were all cloned and expressed in E. coli as part of a 22-185 construct.

293T cells = test: Pulse chase half-life experiments in 293T cells; format: cell-based; details: for effect of proteasome inhibitor MG132 on half-life: 10 μM MG-132, over eight hours; for labelled protein remaining: after 8 hr; for intracellular stability / turnover: pulse chase, result in words
Description: FIG. 9. Removing the PEST motif improves the intracellular half-life of SOCS3 and affects its degradation mechanism. • (A) Duplicate pulse chase experiments in 293T cells performed after transfection of (upper panel) wild-type (1-225) or ΔPEST (Δ129-163) SOCS3 DNA and (lower panel) ΔNC-SOCS3 (22-185) or ΔNC-Δ129-163 (22-185 ΔPEST) SOCS3 DNA. The amount of labelled protein remaining is shown as a perceintage of initial levels and plotted as a semi-log graph. […] Duplicate experiments are shown in each panel • (B) Removing the PEST motif alters the intracellular degradation pathway of SOCS3. Pulse chase experiments were performed on 293T cells transfected with wild-type SOCS3 (black) or ΔPEST SOCS3 (grey) and incubated in the presence (hashed bars) and absence (solid bars) of MG-132, a proteasome inhibitor. Experiments were performed in duplicate according to the protocol in (A) but with the addition of 10 μM MG-132 and the protein levels monitored over eight hours.
293T cells (5×10^5 cells/well) were transfected with 1.5 μg of the appropriate SOCS3 expression construct as described above. 48 h after transfection cells were washed twice in PBS and incubated for 1 h in Met/Cys-free DME (Gibco-BRL). Cells were then incubated for 30 min in DME containing 0.15 mCi/ml [^35S]Met/Cys (Perkin-Elmer) followed by DME+10% Foetal calf serum (Sigma)+2 mM Cys+2 mM Met for various times, upon which cells were lysed in KALB lysis buffer (1 mM EDTA, 150 mM NaCl, 50 mM Tris-Cl, 1% Triton X-100, pH 7.5) and the amount of [^35S]-labelled SOCS3 was determined by immunoprecipitation using anti-Flag tag M2 beads (Sigma). Detection and quantification was carried out using a FujiFilm FLA-3000 phosphoimager and associated software.
Intracellular levels of SOCS3 are strongly regulated by proteolysis. Two regions of the protein have been implicated previously in regulating proteolysis, Lys6 in the N-terminal domain and the C-terminal SOCS box (Chen et al., 2002; Kamura et al., 1998; Sasaki et al., 2003). As PEST motifs are known to be signals for protein degradation in vivo (Rogers et al., 1986), we measured the half-life of SOCS3 proteins that lacked the PEST motif, as well as constructs lacking the SOCS box and the N-terminal region. […] As the SOCS box and the N-terminal domains also affect SOCS3 turnover we further examined the effect of deleting these regions. The decrease in SOCS3 degradation upon removing the PEST motif from either the full-length protein (upper panel) or from SOCS322-185 (which lacks both the N-terminal domain and SOCS box, lower panel) was significant.
As PEST motifs have been associated with proteasome-mediated degradation, we investigated whether proteasome inhibitors would have an effect on the half-life of SOCS3 in 293T cells. […] After 8 hr in the presence of MG132 approximately 65% of ΔPEST SOCS3 remained, compared with ca. 45% in its absence. […] Thus it appears that, in 293T cells, the proteasomal pathway is an important route for ΔPEST SOCS3 degradation but that wild-type SOCS3, which contains the PEST motif, is efficiently degraded via another mechanism.

[3] = target: tyrosine phosphorylated peptide from gp130 (Mus musculus, UniProt Q00560, Q756E); test: Binding studies and isothermal titration calorimetry (ITC) with gp130 peptide; details: for ΔH: FIG. 4 titration, fit to single site binding isotherm
Protocol: as §1

[4] = test system: LIF-induced Stat3 activity; test: Stat3-responsive luciferase assay in 293T cells; format: cell-based; details: 100 or 300 ng cDNA, 10 ng/ml LIF overnight
Description: FIG. 8. […] Backbone amide chemical shift differences between residues in wild-type SOCS3 and ΔPEST SOCS3, which has residues 129-163 replaced by […] (SEQ ID NO:10), are plotted against residue number; amide proton and nitrogen chemical shift differences were averaged according to Δδav, a weighted average of the ^15N and ^1HN chemical shifts as follows: Δδav={0.5[Δδ(^1HN)^2+(0.2Δδ(15N))^2]}^1/2 (Pellecchia et al., 1999). The position of the PEST sequence is marked by a double asterisk. • (B) SOCS3 PEST deletion mutants are able to inhibit STAT activation. 293T cells were transiently transfected with 100 or 300 ng cDNA expressing various Flag-tagged SOCS-3 proteins in the presence of the Stat3-responsive reporter gene. […] Upper panel: Luciferase activity from triplicate samples was determined and normalized against Renilla luciferase activity. Lower panel: Lysates were analysed by Western blot with anti-Flag antibody. […]
Firefly and Renilla luciferase activities were quantified using substrate reagents from the Luciferase Assay Dual-Reporter kit (Promega, Madison Wis.) and an automated LUMIstar Galaxy plate reader (BMG Technologies, Offenburg, Germany). SOCS3 protein expression was analysed by Western blot with polyclonal rat anti-Flag antibody (Drs. D. Huang & L. O'Reilly, The Walter and Eliza Hall Institute of Medical Research, Melbourne, Australia) as described (Nicholson et al., 1999). […]

SOCS3, sequence (O35718 whole entry): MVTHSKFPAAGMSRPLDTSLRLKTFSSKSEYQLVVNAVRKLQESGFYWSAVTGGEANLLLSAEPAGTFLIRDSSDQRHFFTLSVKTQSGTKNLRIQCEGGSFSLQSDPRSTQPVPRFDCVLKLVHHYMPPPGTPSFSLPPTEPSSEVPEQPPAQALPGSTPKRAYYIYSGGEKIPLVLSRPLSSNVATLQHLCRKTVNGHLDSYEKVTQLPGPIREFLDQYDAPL

| Molecule | solubility (in words) [2] | effect of proteasome inhibitor MG132 on half-life (293T cells) | intracellular stability / turnover (293T cells) | ΔH [3] [kcal/mol] | also measured |
| --- | --- | --- | --- | --- | --- |
| STASTVEpYSTVVHSG [phosphotyrosine peptide from gp130] |  |  |  |  | binding to mouse SOCS3 (SOCS3): bind with high affinity |
| wild-type SOCS3: Wild-type (1-225) murine SOCS3, Flag-tagged in the cell assays; SEQ ID NO:1 | too low for structure determination | did not affect the half-life; also recorded: no effect on the half-life |  |  | half-life [1]: under 5 minutes to over 8 hours; labelled protein remaining (293T cells; MG132 state not specified (no effect on wild-type)): 25% |
| SOCS3(22-225): Mouse SOCS3 residues 22-225 containing KIR, extended SH2 domain and SOCS box (protein) LKTFSSKSEYQLVVNAVRKLQESGFYWSAVTGGEANLLLSAEPAGTFLIRDSSDQRHFFTLSVKTQSGTKNLRIQCEGGSFSLQSDPRSTQPVPRFDCVLKLVHHYMPPPGTPSFSLPPTEPSSEVPEQPPAQALPGSTPKRAYYIYSGGEKIPLVLSRPLSSNVATLQHLCRKTVNGHLDSYEKVTQLPGPIREFLDQYDAPL | too poorly soluble |  |  |  | solubility in NaCl/Pi [2]: < 1 mg/mL |
| SOCS3(22-185)(Δ129-163): 22-185 construct with Pro129-Arg163 replaced by an eight residue (Gly-Ser)x4 linker; SEQ ID NO:3 (protein, listed as Mus musculus) LKTFSSKSEYQLVVNAVRKLQESGFYWSAVTGGEANLLLSAEPAGTFLIRDSSDQRHFFTLSVKTQSGTKNLRIQCEGGSFSLQSDPRSTQPVPRFDCVLKLVHHYMGSGSGSGSAYYIYSGGEKIPLVLSRPLSSN |  |  | improved its in vivo stability | -6.4 | binding to the gp130 peptide ([3]; result in words): binds to the gp130 peptide |
| ΔPEST SOCS3: Full-length SOCS3 lacking the PEST sequence (Δ129-163), Flag-tagged (protein) LKTFSSKSEYQLVVNAVRKLQESGFYWSAVTGGEANLLLSAEPAGTFLIRDSSDQRHFFTLSVKTQSGTKNLRIQCEGGSFSLQSDPRSTQPVPRFDCVLKLVHHYMGSGSGSGSAYYIYSGGEKIPLVLSRPLSSN |  | dramatically increased the half-life; also recorded: significantly increased the half-life | improved its in vivo stability |  | ability to inhibit LIF-induced Stat3 activity [4]: did not alter the ability of SOCS3 to inhibit LIF-induced Stat3 activity; labelled protein remaining (293T cells; in the absence of MG132): ca. 45%; labelled protein remaining (293T cells; in the presence of MG132 (10 μM)): approximately 65% |
| SOCS3(22-185): Mouse SOCS3 residues 22-185 with KIR and extended SH2 domain, lacking the C-terminal SOCS box (protein) LKTFSSKSEYQLVVNAVRKLQESGFYWSAVTGGEANLLLSAEPAGTFLIRDSSDQRHFFTLSVKTQSGTKNLRIQCEGGSFSLQSDPRSTQPVPRFDCVLKLVHHYMPPPGTPSFSLPPTEPSSEVPEQPPAQALPGSTPKRAYYIYSGGEKIPLVLSRPLSSN | highest solubility |  |  | -6.2 | soluble to [2]: ≈ 0.5 mM |

From patent US7517959B2, “SOCS3 proteins” (Walter and Eliza Hall Institute of Medical Research, priority 2005, dated 2009)
